Reference: patent publication US7235626B1, “Structured peptide scaffold for displaying turn libraries on phage” (Genentech, Inc., priority 1999, dated 2007)
Positions of bridges follow the written chain, without caps; N, C: chain ends. No end group written: not given here.

How the values were obtained:
[1] = 1H NMR analysis of hairpin structure in solution; type: physicochemical; settings: for structure in solution: NMR, ~2 mM peptide, pH 3.5
Protocol: NMR Spectroscopy. […] All spectra were acquired on a Bruker DRX-500 or a Varian Unity-400 spectrometer at 15° C. 2QF-COSY, TOCSY and ROESY spectra were acquired as described (Cavanagh et al. (1995) Protein NMR Spectroscopy, Principles and Practices (Academic Press, San Diego) with gradient coherence selection (van Zijl et al. (1995) J. Magn. Reson. 113A:265-270), or excitation sculpting (Hwang & Shaka, (1995) J. Magn. Reson. 112A, 275-279.) for water suppression. Proton resonances were assigned by standard methods (Wüthrich (1986) NMR of Proteins and Nucleic Acids (John Wiley and Sons, New York). 3JH^N-H^α were obtained by fitting Lorentzian lines to the antiphase doublets of HN—H^α peaks in 2QF-COSY spectra processed to high digital resolution in F2. ^3JH^N-H^α were extracted from COSY-35 spectra acquired on D2O solutions of the peptides. Distance and dihedral angle restraints were generated as described (Skelton et al. (1994) Biochemistry 33:13581-13592). 100 initial structures were calculated using the hybrid distance geometry/simulated annealing program DGII (Havel et al. (1991) Prog. Biophys. Mol. Biol. 56:43-78.); 80 of these were further refined by restrained molecular dynamics using the AMBER all-atom forcefield implemented in DISCOVER as described previously (Skelton et al. (1994) Biochemistry 33:13581-13592.). […]
Structure Calculation. Structures were calculated with 78 ROE-derived distance restraints (10 medium- and 28 long-range restraints; upper bounds of 5.4, 4.3, 3.4 or 3.0 Å) and 12 dihedral angle restraints. […]
NMR Analysis. […] Spectra were acquired and analyzed as described above. The structure of cd2 was calculated from 84 (including 13 medium- and 23 long-range) ROE-derived distance restraints and 13 dihedral angle restraints. […]
Analysis of Sidechain Rotamers. […] Given the large number of backbone-backbone distance and Φ dihedral angle restraints, the structures calculated for bhpw and cd2 do accurately represent the solution conformation of these peptides, except in the over determination of some side chain orientations.

[2] = Cysteine effective concentration (Ceff) measurement, thiol-disulfide equilibrium relative to glutathione; type: physicochemical
Protocol: Cysteine Effective Concentration Measurements. Glutathione stock solutions were prepared by mixing 3 volumes of 0.2 M reduced glutathione (GSH) with 1 volume of 0.1 M oxidized glutatione (GSSG). Aliquots were stored at −80° C. and were stable for several months; use of a single batch eliminated any error in ΔΔG values that might arise from variability of total glutathione concentration. Thiol-disulfide equilibria were established by mixing 50 μL peptide stock (approximately 3 mM in water) with 50 μL glutathione stock, deoxygenating the acidic solution with vacuum/argon cycles from a Firestone valve, then adding 300 μL of deoxygenated buffer by syringe (0.2 M tris, pH 8.0; 1 mM EDTA; 67 mM tris base to titrate glutathione), followed by further deoxygenation of the mixture. The final pH of all reaction mixtures was 8.10±0.05. Solutions were stirred under argon and maintained at 20° C. in a water bath. After 1.5 h, successive aliquots (100 μL) were removed with a gastight syringe, immediately quenched by discharge into 400 μL of 3.1 mM HCl, and analyzed by HPLC with a minimum of delay. Ceff values were calculated from the molar ratios of the reduced and oxidized forms of peptide and glutathione (peak area ratios corrected for absorbance differences measured by HPLC), assuming 0.025 M total glutathione monomer (i.e., neglecting the minor amount (<1%) of glutathione present in mixed disulfides with peptide): Ceff=([peptideox]/[peptidered])×([GSH]^2/[GSSG]) [GSH]+2[GSSG]=0.025 M [GSSG]=0.025 M/{2+3.26 (GSH peak area/GSSG peak area)} [peptideox]/[peptidered]=equilibrium peak area ratio/absorbance ratio
Two or three samples from each reaction mixture were analyzed; there were no shifts in populations with time, and calculated Ceff values typically varied by less than 5% (equivalent to 30 cal/mol uncertainty in ΔΔG).

[3] = Circular dichroism spectra of peptides; type: physicochemical; settings: 10° C.; 20 μM peptide in 20 mM potassium phosphate, pH 7.0
Protocol: Terminal serine and lysine residues were added to improve the solubility of some variants of the CD4 peptide, which are otherwise uncharged. A similar modification was made to bhpW as a control. Non-turn residues that differ between bhpW and the CD4 loop are underlined. Coelution of reduced and oxidized peptides prevented measurement of Ceff for the T2, N3 variant of the CD4 peptide. Circular dichroism spectra were acquired at 10° C. with an Aviv Instruments, Inc. Model 202 spectrophotometer; peptide concentrations were 20 μM in 20 mM potassium phosphate, pH 7.0.

CD4 = settings: normal CD4 interactions and CD4-mediated cell entry by HIV; cited from earlier work
[4] = Table 2, bhpW and CD4 C′-C″ loop peptides, pH 8.10, 20° C.

Substance	Ceff [2, 4] [mM]	[θ]215 [3]	other results
Ac-CGNQGSFLTC-NH2 (disulfide 1-10 (inferred)) [cd1, disulfide-constrained peptide based on native CD4 hairpin residues 38-45]			structure in solution [1]: essentially unstructured
Ac-CTWEGNKLTC-NH2 (disulfide 1-10 (inferred)) [bhpW, tryptophan analog of the model β-hairpin peptide bhp]	210 ± 4	−19,800 deg cm^2 dmol^−1	Ceff ([2]; Table 1, bhp peptides varied at residue 3, pH 8.10, 20° C.): 210 ± 4 mM; hairpin conformation population ([1]; 15° C., estimate): > 80%
Ac-CTWQGSFLTC-NH2 (disulfide 1-10 (inferred)) [cd2, cd1 with substitutions G2T and N3W]		−15,800 deg cm^2 dmol^−1	structure in solution [1]: well-ordered
FCYICEVEDQCY (also: cyclic, type and places not given here) [cyclic peptide from loops of domain 1 of human CD4]			antagonism of CD4 interactions (CD4): antagonize
SCGNQGSFLTCK-NH2 (disulfide 2-11 (inferred)) [cd1a]	45 ± 4	−1,500 deg cm^2 dmol^−1	
SCGWQGSFLTCK-NH2 (disulfide 2-11 (inferred))	48 ± 0	−6,100 deg cm^2 dmol^−1	
SCTWEGNKLTCK-NH2 (disulfide 2-11 (inferred)) [bhpW with terminal serine and lysine added as a control]	273 ± 2	−17,400 deg cm^2 dmol^−1	
SCTWQGSFLTCK-NH2 (disulfide 2-11 (inferred)) [cd2a]	120 ± 0	−14,000 deg cm^2 dmol^−1	
